These results are taken from patent publication US20220048967A1 (published 2022).

The target in one assay is human GLP-1 receptor (human, UniProt P43220 24-463). Briefly: cell-based or functional assay.
The next assay concerns the target T1, human GIP receptor (human, UniProt P48546 22-466).
T1 sequence (looked up): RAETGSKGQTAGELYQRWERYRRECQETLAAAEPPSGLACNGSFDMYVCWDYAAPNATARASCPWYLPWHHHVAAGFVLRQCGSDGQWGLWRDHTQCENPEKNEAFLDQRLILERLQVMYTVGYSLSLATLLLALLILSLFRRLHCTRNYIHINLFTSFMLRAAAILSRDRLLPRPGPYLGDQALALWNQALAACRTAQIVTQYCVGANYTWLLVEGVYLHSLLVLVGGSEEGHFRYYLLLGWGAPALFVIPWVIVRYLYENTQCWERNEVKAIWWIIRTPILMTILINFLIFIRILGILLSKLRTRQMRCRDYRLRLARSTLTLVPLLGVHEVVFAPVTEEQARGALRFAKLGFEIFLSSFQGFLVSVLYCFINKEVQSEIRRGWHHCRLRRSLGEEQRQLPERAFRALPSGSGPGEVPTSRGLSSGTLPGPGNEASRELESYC
Briefly: cell-based or functional assay.

Numbered stars: 1 amine (or outer) side, 2 acyl side, 3 side chain; on linkers, the order of the positions; unused ones are H or OH. Square brackets hold non-standard residues; d marks the D form. Side chains are listed from the residue outwards. Ends that are not written are not given here. * marks the point of attachment. C20 diacid = O=C(O)CCCCCCCCCCCCCCCCCCC(=O)*; γGlu = O=C(O)[C@H](CCC(=O)[*:2])N[*:1]; AEEA = NCCOCCOCC(=O)O; Aib = CC(C)(N)C(=O)O

B1: Example 45 (peptide)
peptide: Y[Aib]EGTFTSDYSILLDKIAQ[Aib]AFIEYLIEGGPSSGAK([AEEA-AEEA-γGlu-C20 diacid])PPS-NH2
modifications: N-terminus assumed
SMILES: CC[C@H](C)[C@H](NC(=O)[C@H](CCCCN)NC(=O)[C@H](CC(=O)O)NC(=O)[C@H](CC(C)C)NC(=O)[C@H](CC(C)C)NC(=O)[C@@H](NC(=O)[C@H](CO)NC(=O)[C@H](Cc1ccc(O)cc1)NC(=O)[C@H](CC(=O)O)NC(=O)[C@H](CO)NC(=O)[C@@H](NC(=O)[C@H](Cc1ccccc1)NC(=O)[C@@H](NC(=O)CNC(=O)[C@H](CCC(=O)O)NC(=O)C(C)(C)NC(=O)[C@@H](N)Cc1ccc(O)cc1)[C@@H](C)O)[C@@H](C)O)[C@@H](C)CC)C(=O)N[C@@H](C)C(=O)N[C@@H](CCC(N)=O)C(=O)NC(C)(C)C(=O)N[C@@H](C)C(=O)N[C@@H](Cc1ccccc1)C(=O)N[C@H](C(=O)N[C@@H](CCC(=O)O)C(=O)N[C@@H](Cc1ccc(O)cc1)C(=O)N[C@@H](CC(C)C)C(=O)N[C@H](C(=O)N[C@@H](CCC(=O)O)C(=O)NCC(=O)NCC(=O)N1CCC[C@H]1C(=O)N[C@@H](CO)C(=O)N[C@@H](CO)C(=O)NCC(=O)N[C@@H](C)C(=O)N[C@@H](CCCCNC(=O)COCCOCCNC(=O)COCCOCCNC(=O)CC[C@H](NC(=O)CCCCCCCCCCCCCCCCCCC(=O)O)C(=O)O)C(=O)N1CCC[C@H]1C(=O)N1CCC[C@H]1C(=O)N[C@@H](CO)C(N)=O)[C@@H](C)CC)[C@@H](C)CC
With B1, in the assay with human GLP-1 receptor, the “hGLP1R cAMP EC50 ratio” value amounted to 0.0569 and the “hGLP1R cAMP Rel EC50” value stood at 1030 pM. In the assay with human GIP receptor, the “hGIPR cAMP EC50 ratio” value was 1.75 and the “hGIPR cAMP Rel EC50” value came to 106 pM.

B2: Example 48 (peptide)
peptide: Y[Aib]EGTFTSDYSILLDKIAQ[Aib]AFIEYLIEGGPSSGAPPPK([AEEA-AEEA-γGlu-C20 diacid])-NH2
modifications: N-terminus assumed
SMILES: CC[C@H](C)[C@H](NC(=O)[C@H](CCCCN)NC(=O)[C@H](CC(=O)O)NC(=O)[C@H](CC(C)C)NC(=O)[C@H](CC(C)C)NC(=O)[C@@H](NC(=O)[C@H](CO)NC(=O)[C@H](Cc1ccc(O)cc1)NC(=O)[C@H](CC(=O)O)NC(=O)[C@H](CO)NC(=O)[C@@H](NC(=O)[C@H](Cc1ccccc1)NC(=O)[C@@H](NC(=O)CNC(=O)[C@H](CCC(=O)O)NC(=O)C(C)(C)NC(=O)[C@@H](N)Cc1ccc(O)cc1)[C@@H](C)O)[C@@H](C)O)[C@@H](C)CC)C(=O)N[C@@H](C)C(=O)N[C@@H](CCC(N)=O)C(=O)NC(C)(C)C(=O)N[C@@H](C)C(=O)N[C@@H](Cc1ccccc1)C(=O)N[C@H](C(=O)N[C@@H](CCC(=O)O)C(=O)N[C@@H](Cc1ccc(O)cc1)C(=O)N[C@@H](CC(C)C)C(=O)N[C@H](C(=O)N[C@@H](CCC(=O)O)C(=O)NCC(=O)NCC(=O)N1CCC[C@H]1C(=O)N[C@@H](CO)C(=O)N[C@@H](CO)C(=O)NCC(=O)N[C@@H](C)C(=O)N1CCC[C@H]1C(=O)N1CCC[C@H]1C(=O)N1CCC[C@H]1C(=O)N[C@@H](CCCCNC(=O)COCCOCCNC(=O)COCCOCCNC(=O)CC[C@H](NC(=O)CCCCCCCCCCCCCCCCCCC(=O)O)C(=O)O)C(N)=O)[C@@H](C)CC)[C@@H](C)CC
With B2, in the assay with human GLP-1 receptor, the “hGLP1R cAMP EC50 ratio” value came to 0.0966 and the “hGLP1R cAMP Rel EC50” value was found to be 691 pM. For the same molecule, in the assay with human GIP receptor, the “hGIPR cAMP EC50 ratio” value is 0.863 and the “hGIPR cAMP Rel EC50” value was 168 pM.

B3: Example 47 (peptide)
peptide: Y[Aib]EGTFTSDYSILLDKIAQ[Aib]AFIEYLIEGGPSSGAPPK([AEEA-AEEA-γGlu-C20 diacid])S-NH2
modifications: N-terminus assumed
SMILES: CC[C@H](C)[C@H](NC(=O)[C@H](CCCCN)NC(=O)[C@H](CC(=O)O)NC(=O)[C@H](CC(C)C)NC(=O)[C@H](CC(C)C)NC(=O)[C@@H](NC(=O)[C@H](CO)NC(=O)[C@H](Cc1ccc(O)cc1)NC(=O)[C@H](CC(=O)O)NC(=O)[C@H](CO)NC(=O)[C@@H](NC(=O)[C@H](Cc1ccccc1)NC(=O)[C@@H](NC(=O)CNC(=O)[C@H](CCC(=O)O)NC(=O)C(C)(C)NC(=O)[C@@H](N)Cc1ccc(O)cc1)[C@@H](C)O)[C@@H](C)O)[C@@H](C)CC)C(=O)N[C@@H](C)C(=O)N[C@@H](CCC(N)=O)C(=O)NC(C)(C)C(=O)N[C@@H](C)C(=O)N[C@@H](Cc1ccccc1)C(=O)N[C@H](C(=O)N[C@@H](CCC(=O)O)C(=O)N[C@@H](Cc1ccc(O)cc1)C(=O)N[C@@H](CC(C)C)C(=O)N[C@H](C(=O)N[C@@H](CCC(=O)O)C(=O)NCC(=O)NCC(=O)N1CCC[C@H]1C(=O)N[C@@H](CO)C(=O)N[C@@H](CO)C(=O)NCC(=O)N[C@@H](C)C(=O)N1CCC[C@H]1C(=O)N1CCC[C@H]1C(=O)N[C@@H](CCCCNC(=O)COCCOCCNC(=O)COCCOCCNC(=O)CC[C@H](NC(=O)CCCCCCCCCCCCCCCCCCC(=O)O)C(=O)O)C(=O)N[C@@H](CO)C(N)=O)[C@@H](C)CC)[C@@H](C)CC
Turning to B3, in the assay with human GLP-1 receptor, the “hGLP1R cAMP EC50 ratio” value turned out to be 0.089 and the “hGLP1R cAMP Rel EC50” value stood at 702 pM. Besides, in the assay with human GIP receptor, the “hGIPR cAMP EC50 ratio” value is 0.654 and the “hGIPR cAMP Rel EC50” value was found to be 287 pM.

B4: Example 44 (peptide)
peptide: Y[Aib]EGTFTSDYSILLDKIAQ[Aib]AFIEYLIEGGPSSGK([AEEA-AEEA-γGlu-C20 diacid])PPPS-NH2
modifications: N-terminus assumed
SMILES: CC[C@H](C)[C@H](NC(=O)[C@H](CCCCN)NC(=O)[C@H](CC(=O)O)NC(=O)[C@H](CC(C)C)NC(=O)[C@H](CC(C)C)NC(=O)[C@@H](NC(=O)[C@H](CO)NC(=O)[C@H](Cc1ccc(O)cc1)NC(=O)[C@H](CC(=O)O)NC(=O)[C@H](CO)NC(=O)[C@@H](NC(=O)[C@H](Cc1ccccc1)NC(=O)[C@@H](NC(=O)CNC(=O)[C@H](CCC(=O)O)NC(=O)C(C)(C)NC(=O)[C@@H](N)Cc1ccc(O)cc1)[C@@H](C)O)[C@@H](C)O)[C@@H](C)CC)C(=O)N[C@@H](C)C(=O)N[C@@H](CCC(N)=O)C(=O)NC(C)(C)C(=O)N[C@@H](C)C(=O)N[C@@H](Cc1ccccc1)C(=O)N[C@H](C(=O)N[C@@H](CCC(=O)O)C(=O)N[C@@H](Cc1ccc(O)cc1)C(=O)N[C@@H](CC(C)C)C(=O)N[C@H](C(=O)N[C@@H](CCC(=O)O)C(=O)NCC(=O)NCC(=O)N1CCC[C@H]1C(=O)N[C@@H](CO)C(=O)N[C@@H](CO)C(=O)NCC(=O)N[C@@H](CCCCNC(=O)COCCOCCNC(=O)COCCOCCNC(=O)CC[C@H](NC(=O)CCCCCCCCCCCCCCCCCCC(=O)O)C(=O)O)C(=O)N1CCC[C@H]1C(=O)N1CCC[C@H]1C(=O)N1CCC[C@H]1C(=O)N[C@@H](CO)C(N)=O)[C@@H](C)CC)[C@@H](C)CC
Regarding B4, in the assay with human GLP-1 receptor, the “hGLP1R cAMP EC50 ratio” value amounted to 0.0918 and the “hGLP1R cAMP Rel EC50” value turned out to be 752 pM. In the assay with human GIP receptor, the “hGIPR cAMP EC50 ratio” value worked out at 1.11 and the “hGIPR cAMP Rel EC50” value came to 128 pM.

B5: Example 46 (peptide)
peptide: Y[Aib]EGTFTSDYSILLDKIAQ[Aib]AFIEYLIEGGPSSGAPK([AEEA-AEEA-γGlu-C20 diacid])PS-NH2
modifications: N-terminus assumed
SMILES: CC[C@H](C)[C@H](NC(=O)[C@H](CCCCN)NC(=O)[C@H](CC(=O)O)NC(=O)[C@H](CC(C)C)NC(=O)[C@H](CC(C)C)NC(=O)[C@@H](NC(=O)[C@H](CO)NC(=O)[C@H](Cc1ccc(O)cc1)NC(=O)[C@H](CC(=O)O)NC(=O)[C@H](CO)NC(=O)[C@@H](NC(=O)[C@H](Cc1ccccc1)NC(=O)[C@@H](NC(=O)CNC(=O)[C@H](CCC(=O)O)NC(=O)C(C)(C)NC(=O)[C@@H](N)Cc1ccc(O)cc1)[C@@H](C)O)[C@@H](C)O)[C@@H](C)CC)C(=O)N[C@@H](C)C(=O)N[C@@H](CCC(N)=O)C(=O)NC(C)(C)C(=O)N[C@@H](C)C(=O)N[C@@H](Cc1ccccc1)C(=O)N[C@H](C(=O)N[C@@H](CCC(=O)O)C(=O)N[C@@H](Cc1ccc(O)cc1)C(=O)N[C@@H](CC(C)C)C(=O)N[C@H](C(=O)N[C@@H](CCC(=O)O)C(=O)NCC(=O)NCC(=O)N1CCC[C@H]1C(=O)N[C@@H](CO)C(=O)N[C@@H](CO)C(=O)NCC(=O)N[C@@H](C)C(=O)N1CCC[C@H]1C(=O)N[C@@H](CCCCNC(=O)COCCOCCNC(=O)COCCOCCNC(=O)CC[C@H](NC(=O)CCCCCCCCCCCCCCCCCCC(=O)O)C(=O)O)C(=O)N1CCC[C@H]1C(=O)N[C@@H](CO)C(N)=O)[C@@H](C)CC)[C@@H](C)CC
As for B5, in the assay with human GLP-1 receptor, the “hGLP1R cAMP EC50 ratio” value stood at 0.0969 and the “hGLP1R cAMP Rel EC50” value amounted to 687 pM. For the same molecule, in the assay with human GIP receptor, the “hGIPR cAMP EC50 ratio” value is 0.828 and the “hGIPR cAMP Rel EC50” value is 172 pM.
